pKd: −log10 of the molar value.
Molecular target: Biotinylated human ACE2 ectodomain (ACROBiosystems AC2-H82E6), native dimeric form (human) (UniProt Q9BYF1)
Test: FACS

Biotinylated human ACE2 ectodomain (ACROBiosystems AC2-H82E6), native dimeric form (human), sequence (Q9BYF1 18-740): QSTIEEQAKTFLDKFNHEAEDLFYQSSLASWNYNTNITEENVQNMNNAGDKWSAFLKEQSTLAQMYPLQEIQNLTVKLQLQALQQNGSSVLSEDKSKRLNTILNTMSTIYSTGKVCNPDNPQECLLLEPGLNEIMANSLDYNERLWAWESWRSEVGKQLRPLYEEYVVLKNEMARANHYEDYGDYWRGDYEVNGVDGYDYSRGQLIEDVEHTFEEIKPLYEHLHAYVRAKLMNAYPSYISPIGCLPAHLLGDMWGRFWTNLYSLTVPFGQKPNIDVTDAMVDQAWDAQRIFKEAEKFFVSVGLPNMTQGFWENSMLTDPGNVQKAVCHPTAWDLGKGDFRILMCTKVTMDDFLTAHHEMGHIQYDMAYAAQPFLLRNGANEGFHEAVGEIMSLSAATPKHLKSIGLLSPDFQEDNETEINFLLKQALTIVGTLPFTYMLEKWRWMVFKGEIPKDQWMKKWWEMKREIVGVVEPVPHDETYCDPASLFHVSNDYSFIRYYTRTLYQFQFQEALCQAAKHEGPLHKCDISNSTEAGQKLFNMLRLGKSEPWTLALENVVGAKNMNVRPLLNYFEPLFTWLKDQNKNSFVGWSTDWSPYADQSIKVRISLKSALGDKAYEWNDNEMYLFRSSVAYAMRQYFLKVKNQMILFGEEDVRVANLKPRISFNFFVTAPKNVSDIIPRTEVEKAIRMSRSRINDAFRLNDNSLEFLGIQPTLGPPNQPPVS

Row | Substance | pKd
1 | WIV1 RBD, yeast-displayed | 10.77
2 | ZC45 RBD, yeast-displayed | < 6.00
3 | ZXC21 RBD, yeast-displayed | < 6.00

Source: paper PMC7418704
